Test [1] deals with T1, human neonatal Fc receptor (hFcRn) (human, UniProt P55899 24-297; P61769 21-119, limits assumed).
T1 construct: Immobilised on the CM5 chip, pH 6.0
The test can be described thus: SPR (Biacore 2000), FcRn immobilised, pH 6.0, antibody 2000-62.5 nM; pH 6.0. On the technique in general: SPR reads the build-up and loss of mass on a sensor chip optically.

The target of test [2] is T1, human neonatal Fc receptor (hFcRn). The test can be described thus: SPR (Biacore 2000), FcRn immobilised, pH 6.0, antibody 2000-62.5 nM.
For test [3] the target is unchanged. The test can be described thus: SPR (Biacore 2000), FcRn immobilised, pH 6.0, antibody 200-6.25 nM.
Test [4] concerns the target T2, integrin αvβ3 on integrin αvβ3-expressing K562 cells (UniProt P06756 31-1048; P05106 27-788, limits assumed).
T2 construct: whole, on cells; also called integrin ανβ3
The test can be described thus: flow cytometry, 500 nM antibody, Alexa488 anti-human Fc. Background: Flow cytometry measures light scatter and fluorescence of single cells or particles in a stream.

Test [5] deals with T3, integrin αvβ5 on human colorectal cancer cell lines SW480 and LoVo (human, UniProt P06756 31-1048; P18084 24-799).
T3 construct: whole, on cells; also called integrin ανβ5
The test is described as above.

Test [6] has as its target T4, EpCAM (epithelial cell adhesion molecule) on human colorectal cancer cell lines SW480 and LoVo (human, UniProt P16422 24-314).
T4 construct: whole, on cells; also called cell-surface EpCAM
T4 sequence (looked up): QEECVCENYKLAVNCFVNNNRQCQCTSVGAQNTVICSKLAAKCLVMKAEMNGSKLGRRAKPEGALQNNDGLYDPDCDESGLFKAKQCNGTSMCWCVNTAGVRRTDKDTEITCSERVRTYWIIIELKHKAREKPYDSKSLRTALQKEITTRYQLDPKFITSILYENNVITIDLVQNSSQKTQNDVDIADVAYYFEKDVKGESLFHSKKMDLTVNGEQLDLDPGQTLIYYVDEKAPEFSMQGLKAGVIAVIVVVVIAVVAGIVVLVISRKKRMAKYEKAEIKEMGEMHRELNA
The test is described as above.

For test [7], the target named is T4, EpCAM (epithelial cell adhesion …). The test can be described thus: flow cytometry on LoVo cells, 100 nM antibody, Alexa488 anti-human Fc.

B1: epRas13 (RT22 VH, IgG1 N434D, hT4-ep59 GSSG light chain) (antibody)
heavy: not shown
VL: EHLHCLGSLCWPGSSGDIQMTQSPSSLSASVGDRVTITCKSSQSLLNSRDGKNYLAWYQQKPGKAPKLLIYWASTRESGVPSRFSGSGSGTDFTLTISSLQPEDFATYFCQQYWYWMYTFGQGTKVEIKR
As usually defined, the Kd is the equilibrium constant for the complex coming apart. Higher therefore signals lower affinity. B1: in test [1], the affinity, expressed as Kd, was 2700 nM.

B2: epRas83 (RT22 VH, IgG1 LALA-PG, N434D, hT4-ep59 GSSG light chain) (antibody)
heavy: not shown
VL: EHLHCLGSLCWPGSSGDIQMTQSPSSLSASVGDRVTITCKSSQSLLNSRDGKNYLAWYQQKPGKAPKLLIYWASTRESGVPSRFSGSGSGTDFTLTISSLQPEDFATYFCQQYWYWMYTFGQGTKVEIKR
In turn, B2 registered a Kd in test [2] of 3570 nM.

B3: epRas03 (RT22 VH, IgG1, hT4-ep59 GSSG light chain) (antibody)
heavy: not shown
VL: EHLHCLGSLCWPGSSGDIQMTQSPSSLSASVGDRVTITCKSSQSLLNSRDGKNYLAWYQQKPGKAPKLLIYWASTRESGVPSRFSGSGSGTDFTLTISSLQPEDFATYFCQQYWYWMYTFGQGTKVEIKR
notes: Differs from epRas03 MG by the linker of the light chain
Regarding B3, in test [3], the Kd is 148 nM.

B4: RT22-i38 MG (antibody, IgG1, V domains shown)
VH: EVQLVESGGGLVQPGGSLRLSCAASGFTFSDFSMSWVRQAPGKGLEWVSYISRTSHTTYYADSVKGRFTISRDNSKNTLYLQMNSLRAEDTAVYYCARGFKMDYWGQGTLVTVSS
VL: DLVMTQSPSSLSASVGDRVTITCKSSQSLLNSRTGKTYLAWYQQKPGKAPKLLIYWASTRESGVPSRFSGSGSGTDFTLTISSLQPEDFATYFCQQYWYWMYTFGQGTKVEIKR
notes: Intact IgG1,κ
As to B4, the binding result in test [4] and in test [5] was “binds” throughout.

B5: RT22-ep58 MG (antibody, IgG1, V domains shown)
VH: EVQLVESGGGLVQPGGSLRLSCAASGFTFSDFSMSWVRQAPGKGLEWVSYISRTSHTTYYADSVKGRFTISRDNSKNTLYLQMNSLRAEDTAVYYCARGFKMDYWGQGTLVTVSS
VL: DIQMTQSPSSLSASVGDRVTITCKSSQSLLNSRTGKTYLAWYQQKPGKAPKLLIYWASTRESGVPSRFSGSGSGTDFTLTISSLQPEDFATYFCQQYWYWMYTFGQGTKVEIKR
notes: Intact IgG1,κ
Consider B5, for which, in test [6], the binding result is recorded as “binds”.

B6: RT22-i39 MG (antibody, IgG1, V domains shown)
VH: EVQLVESGGGLVQPGGSLRLSCAASGFTFSDFSMSWVRQAPGKGLEWVSYISRTSHTTYYADSVKGRFTISRDNSKNTLYLQMNSLRAEDTAVYYCARGFKMDYWGQGTLVTVSS
VL: DGARYCRGDCFDGMGSSSNDLVMTQSPSSLSASVGDRVTITCKSSQSLLNSRDGKNYLAWYQQKPGKAPKLLIYWASTRESGVPSRFSGSGSGTDFTLTISSLQPEDFATYFCQQYWYWMYTFGQGTKVEIKR
notes: Intact IgG1,κ
Regarding B6, the binding result in test [4] and in test [5] was “binds” throughout.

B7: RT22-ep59 MG (antibody, human IgG1)
heavy: not shown
VL: EHLHCLGSLCWPMGSSSNDIQMTQSPSSLSASVGDRVTITCKSSQSLLNSRDGKNYLAWYQQKPGKAPKLLIYWASTRESGVPSRFSGSGSGTDFTLTISSLQPEDFATYFCQQYWYWMYTFGQGTKVEIKR
notes: also called epRas03 MG
For the molecule B7, the binding result in test [6] is reported as “binds”.

B8: epRas23 MG (antibody, human IgG1)
heavy: not shown
VL: EHLHCLGSLCWPMGSSSNDIQMTQSPSSLSASVGDRVTITCKSSQSLLNSRDGKNYLAWYQQKPGKAPKLLIYWASTRESGVPSRFSGSGSGTDFTLTISSLQPEDFATYFCQQYWYWMYTFGQGTKVEIKR
For the molecule B8, in test [7], the binding result is recorded as “binds”.

The values above are taken from patent US20200339681A1 (ORUM THERAPEUTICS, published 2020).
